experiment: protease stability score; higher = more stable; yeast display proteolysis, trypsin and chymotrypsin;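 note: relative to predicted unfolded state with 0 unfolded-like and 1 meaning tenfold more protease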

Sequence | protease stability score
DETEEMAEEVLRRFLEINRTGDWKDLHRLFDPNVRIVVNGQELHGMELYLKHEIKTRRKLGAKVEEVRLKHLDSQGEKIISEVEIIFDINGQEIRLDVRVIMNKIDGKWTIRELRIH | 1.08
SEDEKEMKQALEHWLELLTTGNEEENEKLADPDVRLNFNGKEFHGWKLYREFLSRIKNATIRIREVRVVNGKVTVISELRIGDKVFEVQIHLKKVNGKWYVEEEHIH | 1.61
SEDEKASKEAFELWRRVDETGDEHSLLRLLDPHVRLHIGDKHLHGREEVKRLLEELGVSRVHFDLRTIRVINGKVFVHGDFEVGDKRTHSEIVALKVDGRWINESIHIR | 0.806
HEEEEEIVRHLEKLLRDLWTGDWDDIEHNLDPNVRIEYGEKTRVGREKFVKTFFDMGMKLRHVRINEFHVVDGRLHVDTRIDGNFNGVEFRTRVEIIAVKINGKWVLHSVHIL | 1.22
DEKEEFMKKLSKLFVELWITGNEEIFNKLMDPNTRSDVNGVENIGRDEIIRFWKEWRRRFGIKHIEVEHVHAIGDKIEIHGIQKAENHHTEIHIRVNVVDGRIREVEVRTH | 2.26
DEEEETLREMLRMSKEALETGDETELHELFDPNVRVVVDGVTLHGWEAWSQFLREIRLSIREVRIKRVDRVDGKIIIDGKFHRIIIQGDKTRENTIDAEVLIRKVDGKWVYEHDSYL | 0.823
DDEEKHAHDILRLLFWVLMTGDEEIIRELFDPNVRVHIGDKEIHGWKELSRHTKEMRHHVRDTDEKDRRSDEDEIRLHGELDGELHFDGKRVKHRMDIHIIAVKIDGRWFFKSLYVR | 0.868
SEDEKHAHEFLEQFIRDWVTGNEESFELMLDPDMRLNINGRDFHGREEAVRHFSHRFKQLGVKHIELKEVDIDVFDGKVHSTYDGVERFNGQELRVRIEVEVLKINGQWYLHRVVVKIE | 2.27
SEEKKAWKLSLELHRRYVETGNEEDLIRFLDPHVRLEFNGQQYVGWEEVIRIMEELGFDVLKEIRLHSLDFQGEYVEVDGEVNGNINGRDRDHRIKFRMLKVDGKWLNHSVHVI | 1.36
DEHTSRLERLAHLFFESWITGDFDALLKYLDPNVRIEQGDKHIHGREVMFEHLERLLKHWWFHEHRLRDVKSVNGVSHLHVHQRNEINGVELRYDFHIHLYIVDGRLKSMEFRIS | 1.07
DELTKEFEHFLEMLRRAQETGDEETVAKLMDPDVRIIIDGRNIIGREELTRFVSEWREEITVNEKHLKVINGRIHVDGEYHSRIRFDGREQRYSTRVHIVTIKVDGQWLLRTVHIG | 1.05
DEDKHVVEEFEKLMSHSMATGDEESLLRLADPNTRIVIGDKELHGMDLYLRWHVQHWRELGVDRVKVEVRVRDVRVVDGKVHVIGELIFRFDGRTQSHDVELEIVKINGKWVLKQINLK | 2.25
SEDHEIIRHYFELLVESFRTGDEETTRRLADPNTRLYFNGKTLHGMEAMLEVLLEIRIEEVELHHVEVINGRVEMDGTVRGIFNGRNQEVKVTFHARKINGVWILNWVEIH | 2.12
SEEEKETRKNLHEFLESIITGDEDHLVNMMDPHARIEVGDWELVGRHKFHEFASKVKNLKLHIRNTEVYGDKVHIDSEINFNGQRRDMVVHAEKINGKWILKHTRYQ | 1.17
DKEDEDIKHLVDRIIHFWETGDFESLLKNVDPNARVEEIFNGKKYHSHGREEFERTLQEWLDRYKNVTIHIREVRMFNGVAIIHAELLIGDKRHEVHLHWFIYDGVLRHVRIQFE | 1.49
DEREEEARKWIELFLRHLLTGDEDSLQELADPHTRNIVGDKDLIGWRFMIKYVRDVRERFDHIEFHITRMEVQGDKVRVDVRIINIVGDKHFEIESHIVTEKINGKWRLKSMELR | 1.51
DELEEKIHRWAELFLKMVLTGNEEFFRHLFDPDARSDINGVRVIGREDMDEVLKFWLDHLRFEHWVYTEVRIYDGRMEVHTRHDIDVNGVLYRRQMRIHLDVVDGRVKEASITRE | 1.37
DESEELTKEAKRVYYETMRTGDEHNLKRLMDPNTRMDFNGVEFHGREAVKILVEQADHLEDVRIKRERVDEHEVELHGEFHGKVNGRHTTTHVILFWLKYNGRWRVKELQVR | 0.84
DQLDKSMKESMTRALEHWETGNERSLENLLDPNTKVVVNGVIVHGWERMSELIHDFWRRLGIDHVEIEDIHNHIQGDKAVLNNKTVINVNGQEIKTTLIIYITKVNGRWTIHSIEIHIH | 1.72
TEDERLFHETLKIFEHAVQTGDEEELERMLDPNVRSTINGVRLHGRESFRKLFHIIWREIRFESVDVKRIHIQGDKMIWFTRIDGIFNGQRDLREVTIFADKIDGRWIFKEVDVR | 2.1
DEDYENFERFLKEWSHSVLTGNEDRLMELADPHTRLNINGVDIHGREEVLKFEHEHLKRVKGATLRRVRVRHYSFVNGVAFVETEFDGHINGVDYRLETEMHIHKFNGVWRMKHIEKK | 0.956
DEEQKAADRVNQLHTESMLTGDEDEFKHLADPNTKFLINGVEFHGRDTLHRWLSEIRLHHHHFEVKHLNFYGDFVEVEGHVRLVFHVNGRRIDVSTRVRWIIEKVDGRWYVRQIHIN | 1.68
DEEEEQARDLTKLLEKLWATGDEHTLLRLLDPNARNIVGDKEHHGREILLKFWRHLGVSRVESKIEDVKVFDGRVYIKGRVRFDGVELETEIESEKVNGQWHIRIIRMR | 1.79
SDDHEEAKEALRLWVEDLLTGDEDRLRELVDPNARIEIIVNGRTIEYHGRDRVNKWTSFVLLRLGVKHSHVHEIRLIDGRVHNDLRIHQGDKDQILHLSFEKINGKWTLREVKISVV | 1.39
DHNKELWERIAEWLIRLQETGNEEELMKNMDPHTRLLVNGVTAHGRDTVTHYYREFLKELGVDVLELKRVHVQGEKVENDGQLHYNGKTHHSRINFFVINGRIHHIELHFE | 0.745

Sequence | protease stability score
SDKDHLFKWAVRHLLEFTQTGNWEHMEHYLDPNVRLNFHIDGVSIERHGMEFLKKLLRDLSEDAGLDNINVQLHSFEIQGEKVNIHLKETFNGRHHETHNVVFKFDGRWKLTKSEVFFL | 0.913
DERHEKAERVTRELIKLLITGDEDLLDDLIDPNARIEIGDKVTHGRDKFSREISEMGVDHVELKEIHVYGDKAIIKGKLDINGKRNKFILIMEKINGRWFLRSMRVEDH | 1.32
SEDKKTLEHYFRELMHVLQTGDETEFVKLLDPDARLIIGDKSDHGREEVSRSLLEFQRILGIDHLEFRHTHLDIQGDKITIILQVRMKVNGREHHSRLIFVAEKVNGRWVLRSVIFEIH | 2.18
HEEEKQIHDIIEIIIRLLVTGNEEIHKRLADPHVRVEVGDKHFHGREEVTKFLMRIDHVQHVDHRIHRMDIIDGRADVHGDLLIDGDFDGRRTRTDIRVRWRIIKIDGRWILHSYSVL | 1.24
DEHEHMTELAHRIIMKTWETGDEEEQHRMFDPHARLIIDGKNIHGREQIQREMKRFSEEIRLRDATIHRVEIQGNKVISDWRLRIDVDGREVHFESHVIIRKVNGRWRIDHLILN | 1.21
SEDEESFRHIIELMKHSLKTGDWRHLEKLLDPNARVHINGKESHGREEAVKAFRHTWEMLGIDHIEFKDEKIRMQGNKVHVHIDGVINVNGVELKSHFEHHIVKFNGRWHTEKLVIQLD | 1.93
KELDEKVDTAIRIFHDVMLTGDEEKLIKLMDPNTRIRYNGRELHGWESHIKLREEELHELGVERVVHIFHNREIRAYDGVADIKGELEIRFNGRTVRHEFRIKFEKVNGRWVVREIEIH | 1.31
SEEEHDVEFVRRLQEEVWHTGDEDKLEELLDPDARAHVNGVTYHGREFVHFFYKRVDHVHHYQIEETRVVGDKLHLISRTDLVINGQRVKTELRWNITKVNGKWRVTEVRID | 1.06
DELEEETREAIRLMFESVKTGDEDSIKHLADPHVRVLINGRDDHGMKILHHLFSRFKNLTIELKRVHVYGEKAEVHTNWHINGRYYHVIWILIKINGRWFIESIEIH | 1.61
DEEEHWLKHWTDLHLFARITGDEELLMKMLDPDVRFHIGDKESHGREEVARLLIELWIHNQHVRRRIIVNGVSHIHGELDGEINGVRHRTEIEIHILVIDGRIHEIIIKVH | 1.24
SEEEQFFRLALELFRQVLQTGDEDRLRELVDPNAKHIINGVELHGRSVLEEFLKRYKNLRIHDVEIKDIRVFDGKLELHGIEDGIIGDKRDERRWHLISEKVDGRWIMHEIQID | 1.7
DEREEESKRATEKVTRDIHTGDEDLHRHLLDPNAKLVFNGREFVGREEVEKILKWFLDRAGVDKINMTIHDVRVVDGRIKLDGRNNINGVEYTVIWISEKYNGRWFDRMIIFS | 0.493
DELTEEVRKFLERLWRATHTGNEKEFWELVDPNVRDDINGRILHGRETVIRIITELGFKVRHNEFRDERVVGEYATVHGNFNVDINGKEHEVDVEIIVEKVNGVWTLKYRHFR | 1.54
DHEDELKMHLFEHLLEVLMTGDEHRKTRLLDPDARSHLDINGQKIDVMGWEEVTKLDRKLHEEIRFHEIHIREWELQGDKIFVVGETRIEINGVEFRTEVRIIVVVVNGRLKALFFHVH | 0.271
SEEEELHRLLRERYIKNALTGNEKHLRRLADPNTRNNVNGRTHHGWDFYTDMISRLGADHVQIHDRHVDIQGEYIDVHLEVELNINGKHHRLDVRIIILKVDGKWTLHSFEML | 0.553
DHRDRYAEEVAHRLLKLRHTGDEEIYHEFADPNDRLIIWIGDKSIHSHGRSLVVQVLRRLHEHWRLEDMFIHDEKLVGEKSNMDIHVVGNINGKRMETTEKFTVRVINGRLHTLEIHLD | 0.474
SEEHEHIRRVWEEIRRVLETGDEEALMRMIDPNVRIRNVQGDKELDIHGRESVVRRILKIFQEIWFDFEDRHIDIQGDKLHIEGHLILRVNGREHRLDVREVWVVVNGVIHTVEFMVE | 1.29
SEREEENRRAFHKFWEIIKTGDEELQDTFADPHVRLDVDGKEFHGREWIVRMLTELLRRFGVDHITFKHVEVQGDKLIIHHRDEVGDKKFELHVIVDKINGRWYERHVSMSER | 1.65
SEEERDTIEFARLWLENYLTGDEETMKELADPRTLSTFRFENHHLHLHGMHLHFTWLHQIRIRHFQPREVSVVNGKTTIDGEYHGEVGDKSHTTRVIIRLEIVNGKIKSVEIEVK | 1.07
DEEDEQREHLLELLFHFLRTGDEELLFRLADPRVRHVWNGRELHGRELVIEILDDELEKMGANHIHIDLERVRMVDGRLDVDGHIVIKIGDKSHFFDMHFHIRKIDGRWVIKDLTIR | 0.853
SEIERDVHELIKEVSELTHTGNEEHSKMLLDPNYRVEIGDKTIHGRHLVSHWIKQMRSDITVEIREVRLIDGRLLADIRFVVRIRFDGVELHIEERRVLFWLKVDGQWIIESQRVH | 0.827
DDEEEIFKKAIEDFIRWERTGDWRQLVENLDPNTRVDVNGVYIHGRERIAEWIKHHIERVKNVKHHKHDEKVQGDKLHLDGVIIIDGVRFDVHLIIVVINGQYKHHEVRIR | 1.17
HDEEKHDREYVEEMLEVWLTGDFDRIMHLFDPNARQEVNGVDIVGRERLHEFNRRWEEDMGFDHSHTHHVEVVNGRVHSDTRVHFNGREMETHLDLRVVNGRIKSIRVSYN | 0.094
SEEEEKTRRILEELFELFLTGDEQRTLELFDPNMRFHLHYGDKELHLHGREEVAKFLHDHRHRVKNVKFHLKKEEVQGDKAILYIRVEIDGQEVYLNIEIHVIDGKLHEVVERIHEV | 2.25
DEDEELARQIWELFVRAEETGDEELLEKLIDPHTRLHIGDKVFHGRDAIKHIRKRVDHVKRVHVESIRVFDGRVEIHSRQRWEINGVEVEQKFRFTMQKINGRWIMHDMSIL | 1.79
